Source: paper PMC11929449, “Epitope-directed selection of GPCR nanobody ligands with evolvable function” (Proceedings of the National Academy of Sciences of the …, 2025)
Read-outs that look alike come from different tables or passages of the source.

Key:
[1] = molecular target: T1, FLAG-tagged wild-type human angiotensin II type I receptor (FLAG-AT1R) (Homo sapiens, UniProt P30556)
[2] = molecular target: T2, FLAG-tagged human angiotensin II type I receptor (FLAG-AT1R) (human); test: flow cytometry on cells; soluble nanobody titrated on Expi293F TetR cells expressing FLAG-AT1R, receptor pre-bound to losartan (10 μM, 5 μM in washes); 20 mM Hepes pH 7.4, 150 mM NaCl, 0.1% BSA, 4 °C; detected with αV5-AlexaFluor647; conditions: one partner purified
T2 construct: also called WT receptor; pMAS85; source: Expi293F TetR, transfected, purified in LMNG/CHS (M1-αFLAG resin, SEC); also Expi293F TetR cells stably expressing FLAG-AT1R under a tetracycline-inducible promoter, on intact cells; not shown: FLAG, N-terminal, kept
T2 chain: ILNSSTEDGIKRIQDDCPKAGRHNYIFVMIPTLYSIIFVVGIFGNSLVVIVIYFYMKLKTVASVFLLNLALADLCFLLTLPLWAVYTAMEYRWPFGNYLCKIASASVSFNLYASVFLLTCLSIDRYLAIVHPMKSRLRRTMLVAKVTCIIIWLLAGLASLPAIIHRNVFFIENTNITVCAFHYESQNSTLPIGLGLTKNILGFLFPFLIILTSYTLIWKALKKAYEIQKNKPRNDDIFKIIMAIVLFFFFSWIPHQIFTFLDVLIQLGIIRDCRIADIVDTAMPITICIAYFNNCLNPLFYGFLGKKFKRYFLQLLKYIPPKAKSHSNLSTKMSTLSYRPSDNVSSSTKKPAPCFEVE

[3] = molecular target: T1, FLAG-tagged wild-type human angiotensin …; test: flow cytometry on cells; nanobody displayed on yeast; 100 nM unliganded detergent-purified FLAG-AT1R in solution, detected with fluorophore-conjugated M1-αFLAG; 4 °C, 30 min; 20 mM Hepes pH 7.5, 150 mM NaCl, 2.8 mM CaCl2, 0.05% LMNG, 0.005% CHS; conditions: one partner purified
[4] = molecular target: T1, FLAG-tagged wild-type human angiotensin …; test: flow cytometry on cells; purified nanobody (single point 250 or 500 nM, or titrated) on Expi293F TetR cells expressing FLAG-AT1R preincubated with 10 μM losartan at 4 °C for 30 min; detected with αV5-AlexaFluor647; 20 mM Hepes pH 7.4, 150 mM NaCl, 0.1% BSA; conditions: one partner purified
[5] = molecular target: FLAG-tagged wild-type human angiotensin II type I receptor (FLAG-AT1R) (human) (UniProt P30556); test: flow cytometry on cells; purified nanobody (single point 250 nM, or titrated) on Expi293F TetR cells expressing FLAG-AT1R preincubated with 10 μM olmesartan at 4 °C for 30 min; detected with αV5-AlexaFluor647; 20 mM Hepes pH 7.4, 150 mM NaCl, 0.1% BSA
[6] = molecular target: T1, FLAG-tagged wild-type human angiotensin …; test: flow cytometry on cells; purified nanobody (single point 250 or 500 nM, or titrated) on Expi293F TetR cells expressing FLAG-AT1R, unliganded; 1 h; detected with αV5-AlexaFluor647; 20 mM Hepes pH 7.4, 150 mM NaCl, 0.1% BSA; conditions: one partner purified
[7] = molecular target: T2, FLAG-tagged human angiotensin II type I …; test: flow cytometry on cells; soluble nanobody titrated on Expi293F TetR cells expressing FLAG-AT1R, unliganded receptor; 20 mM Hepes pH 7.4, 150 mM NaCl, 0.1% BSA, 4 °C; detected with αV5-AlexaFluor647; conditions: one partner purified

T1 sequence (P30556 whole entry): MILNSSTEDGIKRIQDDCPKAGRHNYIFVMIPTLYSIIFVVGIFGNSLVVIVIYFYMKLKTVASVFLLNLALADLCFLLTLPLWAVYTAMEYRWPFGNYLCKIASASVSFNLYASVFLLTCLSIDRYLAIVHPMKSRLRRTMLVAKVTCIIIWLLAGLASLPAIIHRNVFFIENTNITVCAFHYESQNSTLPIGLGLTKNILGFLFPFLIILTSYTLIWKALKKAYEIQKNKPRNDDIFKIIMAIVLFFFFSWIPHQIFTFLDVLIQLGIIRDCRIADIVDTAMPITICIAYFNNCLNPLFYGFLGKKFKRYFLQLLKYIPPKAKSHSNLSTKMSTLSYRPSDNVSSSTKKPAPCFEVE

B1: AT212 (VHH)
VHH: QVQLQESGGGLVQAGGSLRLSCAASGSISNYKYMGWYRQAPGKERELVATIGGGATTNYADSVKGRFTISRDNAKNTVYLQMNSLKPEDTAVYYCAAVRAGYSLYYPYFYYWGQGTQVTVSS
B1: binds [1].

B2: nanobody AT206 (VHH)
VHH: QVQLQESGGGLVQAGGSLRLSCAASGSISYYRMGWYRQAPGKEREFVAGIGVGTTTNYADSVKGRFTISRDNAKNTVYLQMNSLKPEDTAVYYCAAYNYFPRSIVYYYVYWGQGTQVTVSS
notes: source: E. coli BL21(DE3), periplasm, purified (Ni-NTA); not shown: V5, C-terminal, kept
B2 showed a Kd [2] of 363 nM.

B3: AT206, yeast-displayed (VHH)
VHH: QVQLQESGGGLVQAGGSLRLSCAASGSISYYRMGWYRQAPGKEREFVAGIGVGTTTNYADSVKGRFTISRDNAKNTVYLQMNSLKPEDTAVYYCAAYNYFPRSIVYYYVYWGQGTQVTVSS
notes: synthetic nanobody AT206; also in the deposited structures; the anchor is not described here
B3: binds [3].

B4: AT206 (VHH)
VHH: QVQLQESGGGLVQAGGSLRLSCAASGSISYYRMGWYRQAPGKEREFVAGIGVGTTTNYADSVKGRFTISRDNAKNTVYLQMNSLKPEDTAVYYCAAYNYFPRSIVYYYVYWGQGTQVTVSS
notes: synthetic nanobody AT206; also in the deposited structures; also called parent clone of AT118-AT206; source: E. coli BL21(DE3), periplasm, purified (Ni-NTA); not shown: V5, C-terminal, kept
B4: binds [4].

B5: AT201 (VHH)
VHH: QVQLQESGGGLVQAGGSLRLSCAASGTISDPPYMGWYRQAPGKERELVAAIDVGANTYYADSVKGRFTISRDNAKNTVYLQMNSLKPEDTAVYYCAVEYDAQVPHQYWGQGTQVTVSS
B5: binds [1].

B6: AT208 (VHH)
VHH: QVQLQESGGGLVQAGGSLRLSCAASGYIFTRYRMGWYRQAPGKEREFVAAIGDGGTTNYADSVKGRFTISRDNAKNTVYLQMNSLKPEDTAVYYCAAYYVSRPNYGTIYVYWGQGTQVTVSS
notes: synthetic nanobody AT208; source: E. coli BL21(DE3), periplasm, purified (Ni-NTA); not shown: V5, C-terminal, kept
B6: binds [4].

B7: AT209 (VHH)
VHH: QVQLQESGGGLVQAGGSLRLSCAASGYIFYRYSMGWYRQAPGKEREFVAGISYGATTNYADSVKGRFTISRDNAKNTVYLQMNSLKPEDTAVYYCAAWGGRTLYFVYWGQGTQVTVSS
For B7, the Kd [5] was 100 nM.

B8: AT209 L103D (VHH)
VHH: QVQLQESGGGLVQAGGSLRLSCAASGYIFYRYSMGWYRQAPGKEREFVAGISYGATTNYADSVKGRFTISRDNAKNTVYLQMNSLKPEDTAVYYCAAWGGRTDYFVYWGQGTQVTVSS
notes: as the chain of AT209 with L103D in CDR3; also called AT209 L103D^CDR3; AT209 L103D variant; source: E. coli BL21(DE3), periplasm, purified (Ni-NTA); not shown: V5, C-terminal, kept
B8: binds [6].

B9: nanobody AT209 L103D (VHH)
VHH: QVQLQESGGGLVQAGGSLRLSCAASGYIFYRYSMGWYRQAPGKEREFVAGISYGATTNYADSVKGRFTISRDNAKNTVYLQMNSLKPEDTAVYYCAAWGGRTDYFVYWGQGTQVTVSS
notes: the substitution L103D is still to be applied; also called AT209 L103D^CDR3; source: E. coli BL21(DE3), periplasm, purified (Ni-NTA); not shown: V5, C-terminal, kept
In the case of B9, the Kd [7] is reported as 144 nM.

B10: AT203 (VHH)
VHH: QVQLQESGGLVQAGGSLRLSCAASGYISRSYDMGWYRQAPGKERELVASINEGSTTNYADSVKGRFTISRDNAKNTVYLQMNSLKPEDTAVYYCAAYTYGHGDYHVYWGQGTQVTVSS
B10: binds [1].

B11: AT205 (VHH)
VHH: QVQLQESGGGLVQAGGSLRLSCAASGYIFYDSVMGWYRQAPGKEREFVAAIAAGSSTNYADSVKGRFTISRDNAKNTVYLQMNSLKPEDTAVYYCGEYYNWLHQYWGQGTQVTVSS
notes: synthetic nanobody AT205; source: E. coli BL21(DE3), periplasm, purified (Ni-NTA); not shown: V5, C-terminal, kept
B11: binds [4].

B12: AT207 (VHH)
VHH: QVQLQESGGGLVQAGGSLRLSCAASGYIFTHSSMGWYRQAPGKEREFVAAITVGANTNYADSVKGRFTISRDNAKNTVYLQMNSLKPEDTAVYYCAAYNPFYPVYIYWGQGTQVTVSS
notes: synthetic nanobody AT207; source: E. coli BL21(DE3), periplasm, purified (Ni-NTA); not shown: V5, C-terminal, kept
B12: binds [4].

B13: AT210 (VHH)
VHH: QVQLQESGGGLVQAGGSLRLSCAASGTISSWSFMGWYRQAPGKEREFVATIAPGSSTNYADSVKGRFTISRDNAKNTVYLQMNSLKPEDTAVYYCAVYYGVPRFHVYWGQGTQVTVSS
B13: binds [1].

B14: AT213 (VHH)
VHH: QVQLQESGGGLVQAGGSLRLSCAASGYIFYGATMGWYRQAPGKEREFVAGINYGGSTNYADSVKGRFTISRDNAKNTVYLQMNSLKPEDTAVYYCAVWDTYAQRRSSYFVYWGQGTQVTVSS
B14: binds [1].

B15: AT211 (VHH)
VHH: QVQLQESGGGLVQAGGSLRLSCAASGTISHSAGMGWYRQAPGKERELVAAISGGTITNYADSVKGRFTISRDNAKNTVYLQMNSLKPEDTAVYYCAALGYWRRAGGTYYVVHYYWGQGTQVTVSS
notes: synthetic nanobody AT211; source: E. coli BL21(DE3), periplasm, purified (Ni-NTA); not shown: V5, C-terminal, kept
B15: binds [4].

B16: AT118-H CDR1-AT206 CDR2 CDR3 chimeric nanobody (AT118-AT206) (VHH)
VHH: QVQLQESGGGLVQAGGSLRLSCAASDYIYRRYRMGWYRQAPGKEREFVAGIGVGTTTNYADSVKGRFTISRDNAKNTVYLQMNSLKPEDTAVYYCAAYNYFPRSIVYYYVYWGQGTQVTVSS
notes: AT206 with its CDR1 replaced by CDR1 of AT118-H and the G26D stabilising substitution; also called AT118-H G26D CDR1, AT206 CDR 2&3; source: E. coli BL21(DE3), periplasm, purified (Ni-NTA); not shown: V5, C-terminal, kept
Work on B16 yielded a Kd [2] of 153 nM and a Kd [7] of 206 nM.

B17: AT118-H CDR1-AT206 CDR2 CDR3 chimeric nanobody (AT118-AT206) (VHH)
VHH: QVQLQESGGGLVQAGGSLRLSCAASDYIYRRYRMGWYRQAPGKEREFVAGIGVGTTTNYADSVKGRFTISRDNAKNTVYLQMNSLKPEDTAVYYCAAYNYFPRSIVYYYVYWGQGTQVTVSS
notes: as the chain of AT206 with CDR1 replaced by CDR1 of AT118-H and the stabilising substitution G26D; also called AT118-AT206 chimera; source: E. coli BL21(DE3), periplasm, purified (Ni-NTA); not shown: V5, C-terminal, kept
With B17 the “fold increase in affinity over AT206” value [4] was 2 fold.
